The record followed here is EP4613859A1, “TLR SIGNALING INHIBITORY PEPTIDE AND COMPOSITION INCLUDING SAME FOR PREVENTION OR TREATMENT OF INFLAMMATORY DISEASES” (Korea Institute of Science and Technology, priority 2022, dated 2025).

The subject of one assay is human MYD88. Put plainly: Phage display screening of TIR domain-derived peptide library against immobilized MyD88, NGS analysis after four rounds. It counts as binding. The conditions noted are these: for NGS count: P3_MyD88: library displayed on P3 coat protein, phages remaining after fourth round; for Population: P3_MyD88: relative distribution of the sequence in NGS. The procedure: (§1) First, vector cloning was performed by synthesizing a DNA sequence for expressing each peptide belonging to the library constructed in Example 1. Vector cloning was performed using p3/p8 phagemids.
(§2) After the fourth round, the remaining phages were obtained by binding to the finally immobilized target proteins, and peptide sequences binding to the target and the relative distribution of each sequence were confirmed by performing NGS analysis on phagemids in the phages.

The test system of another assay is human MAL. Put plainly: Phage display screening of TIR domain-derived peptide library against immobilized MAL, NGS analysis after four rounds. As to conditions: for NGS count: phages remaining after fourth round. The assay is classed as binding. How it is done:
as §1, §2

A further assay has as its target human MAL (human) (UniProt P58753). Put plainly: P3 phage display panning on plate-immobilised MAL, after round 4, NGS.
Sequence of UniProt P58753 (P58753 79-221 limits assumed): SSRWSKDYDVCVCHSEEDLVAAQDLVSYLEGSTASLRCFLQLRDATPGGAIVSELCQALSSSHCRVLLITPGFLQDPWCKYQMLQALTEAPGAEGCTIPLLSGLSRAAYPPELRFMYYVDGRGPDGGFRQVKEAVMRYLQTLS
For another assay, the target named is human MyD88 (human) (UniProt Q99836). Put plainly: P8 phage display panning on plate-immobilised MyD88, after round 4, NGS.
Sequence of UniProt Q99836 (Q99836 155-296 limits assumed): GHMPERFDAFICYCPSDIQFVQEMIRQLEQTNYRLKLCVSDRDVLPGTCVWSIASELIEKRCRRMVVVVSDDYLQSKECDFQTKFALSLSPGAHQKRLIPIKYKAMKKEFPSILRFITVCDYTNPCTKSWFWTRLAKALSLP
[1] abbreviates: P3_MAL: library displayed on P3 coat protein.
Where [2] appears, read: P3_MAL: relative distribution of the sequence in NGS.
Setting [3] is: P8_MAL: library displayed on P8 coat protein.

As for LKVESWRQALEKAGKL, the values for the NGS count with human MYD88 and in the assay with human MAL (setting [1]) were 16847 and 5180, respectively. The Population in the assay on human MYD88 stood at 4.91%; in the assay on human MAL (setting [2]) it was 2.32%.
In the same order, the values of LVAHEISKKMKIFATI are 17452, 1671, 5.08% and 0.63%.
In the case of NELVHVWSSKANSLVG, the NGS count in the assay with human MYD88 stood at 8816; with human MAL (setting [1]) it was 1836. For the same molecule, the Population in the assay on human MYD88 was determined as 2.57%; in the assay with human MAL (setting [2]), 0.69%.
Take KEVEGWRDALTKVASL: the values for the NGS count with human MYD88 and with human MAL (setting [1]) were 5187 and 3758, respectively. Further, the Population amounted to 1.80% in the assay on human MYD88 and 1.41% with human MAL (setting [2]).
In the same order, the values of ESILNQLRRSSQSIAN are 1976, 3680, 0.58% and 1.38%.
In the same order, the values of KNLFNELVSKNIRTFM are 8543, 3259, 2.49% and 1.22%.
For DHHLDLPRGKAIKPEILG the same measures were 26722, 2280, 7.78% and 0.86%.
As for NQWRNALTAAANLSGW, the NGS count is on record as 28662 with human MYD88, 25831 in the assay on human MAL (setting [1]) and 848 in the assay with human MAL (setting [3]). The Population in the assay with human MYD88 is reported as 8.35%; in the assay on human MAL (setting [2]) it was 9.71%.
On to GFLYQAFAREGFKIFM, for which the NGS count with human MYD88 was 2579; with human MAL (setting [1]), 1764. In addition, the Population amounted to 0.75% in the assay with human MYD88 and 0.66% in the assay with human MAL (setting [2]).
With DTKLKKGESIAPELLR, the NGS count with human MYD88 worked out at 2465; with human MAL (setting [3]), 5617. The figures for the Population in the assay on human MYD88 and in the assay with human MAL (P8_MAL: relative distribution of the sequence in NGS) were 0.72% and 1.74%, respectively.
In the assay with human MAL (human), RLLKWKEALHQFHSWV had an NGS count of 14900 count and a Population of 5.61%.
Take WALDELLKILYANETM: in the assay with human MyD88 (human), the NGS count came out at 10500 count and the Population worked out at 4.05%.
As to RGFLSHLRHHLQAKDH, in the assay with human MAL (human), the NGS count is 15100 count and the Population is 5.66%.
For LQNQWKLALTKVANLV the same measures were 2280 count and 0.86%.
LGYHWIDWEYFVGIED: in the assay with human MyD88 (human), the NGS count amounted to 25200 count and the Population came to 9.72%.
For VEPTQVRKQSGAVENA, in the assay with human MAL (human), the NGS count came to 2280 count and the Population came out at 0.86%.
Take YLLLSVFQTIFARRTE: in the assay with human MyD88 (human), the NGS count turned out to be 7160 count and the Population was 2.76%.
In the assay with human MAL (human), KMQKWKDALYEAANLS gave an NGS count of 4430 count and a Population of 1.66%.
For SFFWNKLRYHLPAPQH the same measures were 2300 count and 0.86%.
In the assay with human MyD88 (human), WALDELLQILHARELF returned an NGS count of 14400 count and a Population of 5.55%.
In the assay with human MAL (human), DWFLSKLSQHILKREK showed an NGS count of 4580 count and a Population of 1.72%.
In the same order, the values of FLNFRGLDVRNYFLGH are 2860 count and 1.07%.
In the assay with human MyD88 (human), DPQDLDWFYERLVSLL had an NGS count of 13100 count and a Population of 5.06%.
For WDFASNMEQFWDRLYY the same measures were 7350 count and 2.83%.
On to HHKGSYGEALAEHEKR, for which, in the assay with human MAL (human), the NGS count was determined as 3060 count and the Population came out at 1.15%.
In the same order, the values of SLRKNLVSNLIEEFKR are 3570 count and 1.34%.
In the assay with human MyD88 (human), YASYDDNDYYWVTHVLLRHL gave an NGS count of 5890 count and a Population of 2.66%.
In the same order, the values of DPQDLDWFYERLVSLF are 54800 count and 21.1%.
For PQDLEWFYERLVSLIL the same measures were 10600 count and 4.07%.
For DWVWDYLLPNLEGPAG the same measures were 19400 count and 7.47%.
Consider DSLFWDRLLYSLHVTE, for which, in the assay with human MyD88 (human), the NGS count was 7590 count and the Population was 2.92%.
In the assay with human MAL (human), PNLRTKVLNYLMRTKT returned an NGS count of 26900 count and a Population of 10.1%.
On to VQWDDPWFWDKLAYAM, for which, in the assay with human MyD88 (human), the NGS count was found to be 4900 count and the Population was determined as 1.89%.
Consider HQAFWNRLWAKLKPPT, for which, in the assay with human MAL (human), the NGS count came to 1930 count and the Population was found to be 0.73%.
On to KWFWDKLIYALSRNPH, for which, in the assay with human MAL (human), the NGS count was found to be 2800 count and the Population was 1.05%.
For the molecule SAAYDDFWDRLIRMIE, in the assay with human MyD88 (human), the NGS count came to 5340 count and the Population amounted to 2.06%.
DPQDLQWFYERLVSLI: in the assay with human MyD88 (human), the NGS count stood at 5730 count and the Population worked out at 2.21%.
